Laboratory results from the supplement of paper PMC10567573.
± gives the standard deviation.

Test: protein stability index of a GFP-peptide fusion (GPS, HEK-293T) (PSI 1-6); higher = more stable
Settings: c terminus: a fixed tail appended
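Note: 24-mer peptide tiles fused after GFP, lentivirally expressed, FACS-sorted into six equal bins by GFP/DsRed ratio, decoded by Illumina sequencing, PSI is the read-weighted mean bin number.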

Sequence	protein stability index (treatment: DMSO)	protein stability index (treatment: MLN4924 1 uM, 8 h)
DVSLPRGAFPPRGPRPVQSVVPEM [CDK4]	4.01 ± 0.33	3.94 ± 0.33
DWEAVPQRKLKPPIVPKIAGDGDT [PRKX]	4.9 ± 0.21	4.87 ± 0.24
EAKAVGLISHVLEQNQEGDAAYRK [AUH]	5.22 ± 0.22	5.18 ± 0.28
EAPKYHIPYWVAYYLALLLSLLVM [NSDHL]	2.63 ± 0.36	2.53 ± 0.69
EAVTCGNTEVPARNLYAYIQKLTQ [PTPRD]	2.81 ± 0.19	2.96 ± 0.36
ECEEGELSFYDAERHCHLYTFHAR [TRIM35]	3.18 ± 0.27	3.21 ± 0.24
EDENIEVVYSKAASVPKVETVKSD [EIF5]	5.44 ± 0.41	5.4 ± 0.19
EDPEENPYGPPPDAVQTSLMDEGA [RBBP5]	5.56 ± 0.33	5.46 ± 0.29
EDSAQNCFALIPKAPKKDVIKMLV [EFHC1]	2.69 ± 0.4	2.97 ± 0.26
EEAEWESINVLLMMHGLKPLSLVK [CEP70]	2.36 ± 0.66	2.31 ± 0.35
EEARRNRLMRDMAQLRLQLEVSQL [SMG5]	2.25 ± 0.27	2.41 ± 0.29
EEDSILIIPTPDEEEKILRVKLEE [ZNF24]	5.03 ± 0.14	5 ± 0.31
EEETVTTKHIHITQATETTTTRHK [CLINT1]	5.15 ± 0.2	5.19 ± 0.44
EEGPTVVLNPHPSLGYKEIRKGES [CHGA]	4.96 ± 0.29	5.03 ± 0.27
EEHGLQQERPRPEPGRLGSSSPAS [PXN]	5.25 ± 0.43	5.1 ± 0.15
EENRLREELRQEWEAKQEKIKSEE [FAM50A]	5.59 ± 0.14	5.52 ± 0.21
EEPQWVPDKECRRCMQCDAKFDFL [ZFYVE21]	2.85 ± 0.45	2.95 ± 0.39
EFRRWRDTGVAFELRDSSAYHVPN [DNAAF3]	2.75 ± 0.24	3 ± 0.32
EFSRATAEKVNQDMCMKVPDDPEH [CRYL1]	5.62 ± 0.17	5.12 ± 0.75
EFYHDEFKRWIYLNDQNLCIPASS [GAN]	2.75 ± 0.28	2.74 ± 0.13
EGCKSFFKRSVRRNLSYTCRANRN [NR2F2]	3.34 ± 0.36	3.52 ± 0.31
EGHQAWIVGIVEKGNRTARIIDKP [SEPHS2]	1.95 ± 0.24	2.42 ± 0.43

Sequence	protein stability index (treatment: DMSO)	protein stability index (treatment: MLN4924 1 uM, 8 h)
EHGDQLLSIRCQHQEQVEDLTASH [MTUS2]	5.25 ± 0.23	5.09 ± 0.22
EHGYENMNHFTVNLNREEKIIREI [TRIM55]	3.64 ± 0.19	3.85 ± 0.27
EIATKPHEKIGFPAARRCHSCVQI [KLHDC10]	2.43 ± 0.29	2.59 ± 0.2
EKEMKAQEQRLGIRISMSHEEEPL [GMPPB]	5.23 ± 0.25	5.24 ± 0.086
EKEMQKMNPYKIDIGAVYSHRPNQ [PRIM1]	3.64 ± 0.43	3.44 ± 0.32
EKFSDEGDSDSALDSVSPCPSSPK [DLC1]	5.41 ± 0.51	5.58 ± 0.13
ELADHIERLKANDNLKFSQEYESI [PTPRD]	3.48 ± 0.25	3.74 ± 0.28
ELAEATWCGISTDMWRSENQNRAY [ZBED1]	2.84 ± 0.33	2.8 ± 0.44
ELAPDFVGDILWEHLEILQKEDVK [ETS1]	3.95 ± 0.48	4.17 ± 0.29
ELEDKDGLQSAQPTEGQGSLLTNW [MYBL2]	5.03 ± 0.36	5.35 ± 0.31
ELERIGPQHQAGSDSLLTGMAFFK [CNOT7]	3.25 ± 0.34	3.62 ± 0.11
ELLATGDKGGRVVIFQREQESKNQ [PPP2R2B]	3.79 ± 0.82	3.91 ± 0.34
ELLTCHSAEYVGHLRATEKMKTRE [HDAC6]	3.82 ± 0.1	–
ELRFLLVYLHGDDHQDSDEFCRNT [FAF2]	2.29 ± 0.23	2.43 ± 0.32
ELSEAAEAQHGPHSAVARISRAQY [STX11]	4.53 ± 0.24	4.63 ± 0.15
ENCLDAKSTSIQVIVKEGGLKLIQ [MLH1]	2.7 ± 0.37	2.94 ± 0.22
ENVLHFKAQGHGAKGDNVYEFHLE [HACD3]	3.57 ± 0.3	3.79 ± 0.17
EPASAREAPASVVPFVRVKREREV [USP39]	4.93 ± 0.3	4.87 ± 0.58
EPHSLLHLSRLCVRHNLGDTRLGQ [SPSB2]	3.44 ± 0.18	3.35 ± 0.19
EPPCEGNTFFCHSNMCINNTLVCN [NETO1]	2.9 ± 0.24	2.85 ± 0.35
EQDRIPEVHVPPSSAVSGVKEWFG [MIA2]	4.35 ± 0.099	4.46 ± 0.35
EQSSARQKASLLIQQALTMFPGVL [TCF25]	2.51 ± 0.3	2.54 ± 0.3

Sequence	protein stability index (treatment: DMSO)	protein stability index (treatment: MLN4924 1 uM, 8 h)
ERDALEAVFRFWAGGEKGPQAFPM [DNAAF3]	2.5 ± 0.24	2.58 ± 0.28
ERLLAVAERYGLSGSDVLDNVAYA [RAD51]	2.8 ± 0.23	2.95 ± 0.094
ERNEVRNVFKELQIMQGLEHPFLV [STK32A]	2.71 ± 0.32	2.72 ± 0.41
ERSQEESPPGSTKRRKSMSGASPK [CDC25A]	5.48 ± 0.19	5.46 ± 0.12
ERSRDVVDEVSVSLRLWDTFGDHH [RHOBTB1]	3.27 ± 0.2	3.32 ± 0.31
ERVYSLQHLDPQGAQELLEFTIRD [INTS4]	3.74 ± 0.42	3.69 ± 0.31
ESAKDWETSPLPGMLAPAAGPAFD [PPFIA4]	4.62 ± 0.076	4.61 ± 0.33
ESLTEDEATQFLKQILDGVHYLHS [DAPK3]	3.06 ± 0.28	3.29 ± 0.28
ESPDEMELDELLKEISRKRRSIRY [PTPRD]	3.05 ± 0.24	3.4 ± 0.069
ESSQKYKEGKYIIELNHMIKDNGW [YPEL3]	3.04 ± 0.21	3.08 ± 0.27
ETLDYGKNYNYGMHYCAVPPRGPL [NEUROD6]	2.65 ± 0.31	2.68 ± 0.14
ETYKMEFMYSGVENKQVVIIHHMR [INTS4]	2.72 ± 0.56	2.46 ± 0.47
EVESLTAARNACRAGTEPSDAIRV [TRIP13]	4.33 ± 0.15	4.51 ± 0.27
EVETEGPESADTGDKSESPDEANV [TOR1AIP2]	5.32 ± 0.41	5.58 ± 0.3
EVILLVVMAYDRYMAICKPLHELI [OR4A15]	3.26 ± 0.43	2.97 ± 0.44
EVIYPQHSKLTDREKTNICYLSFP [DENND6A]	2.2 ± 0.43	2.54 ± 0.38
EVKLLLSSETPIEGKNMSFVNDLT [APMAP]	3.35 ± 0.23	3.56 ± 0.13
EVMERDAKDYADSIHAIFVETSAK [RAB22A]	4.15 ± 0.28	4.13 ± 0.24
EYLSLVKGGQDVKKKVHLSEKIHP [PRIM1]	2.65 ± 0.3	2.79 ± 0.39
FANGHTYHINSISVNSDCETYMSA [PPP2R2C]	2.68 ± 0.69	2.63 ± 0.23
FEFRPELVNDDDEEADDTRYTQGT [ZC3H15]	5.44 ± 0.25	5.28 ± 0.2
